Assays:
SCC25 cells = test: MTT cell toxicity, SCC25; format: cell-based, human
Experimental: SCC25 cells were seeded in a 96-well plate at a density of 2×10^4 cells per well and cultured in 5% CO2 at 37° C. for 24 h. Then, free RNase A, SVs, RNase A loaded SVs and corresponding denatured samples were added to the cells in DMEM medium at an RNase A dosage of 4-16 μg/ml, and the cells were incubated in 5% CO2 at 37° C. for 24 and 72 h. Subsequently, MTT reagent (10 μl/well volume from 5 mg/mI solution in PBS) was added to each well, shaken for 10 seconds and then incubated at 37° C. for 4 h. The precipitants were collected following centrifugation for the above cell toxicity experiments after the removal of the supernatant. Then DMSO (100 μl) was added to each well to dissolve the formazan crystals and the optical density (OD) was recorded at 570 nm using a microplate reader (SpectraMax M5, Bio-Strategy, Ltd). Cells incubated in the absence of SVs and RNase A were used as the control. All the experiments were performed in triplicate for each group.
Another series of control groups was prepared after heat and acid denaturation of RNase A, including both free RNase A and RNase A loaded SVs. In the denaturation process, 50 μl of HCl (0.01M, pH 2.0) solution was added in to 1 mg of free RNase A or 6-9 mg of SVs (loaded with 1 mg RNase A). The mixtures were incubated at 65° C. for 40 min, cooled and centrifuged. NaOH (0.01M) solution was added dropwise into the mixtures until the pH reached ˜7, indicated by precise pH paper and used as a denatured RNase A group in the present experiment.
The stability and activity of RNase A loaded in hydrophobic modified SV was further investigated with acid and heat treatment. In a treatment procedure, 50 μl 0.01 M HCl (pH 2) was added to ˜1 mg RNase A loaded in SV. The mixture was kept in 65° C. for 40 min, then neutralized with 0.01 M NaOH solution (pH 12) until the pH reached 7. The final RNase A concentration was then diluted to 0.5 mg/ml. Free RNase A was also treated accordingly as a control group. […]

HCT116 cells = test: Cell viability after acid and heat treatment, HCT116; format: cell-based; conditions: 24 to 72 h; samples acid and heat treated
RNase A = RNase A (Bos taurus, UniProt P61823); test: Thermal unfolding of RNase A by differential scanning calorimetry; format: physicochemical; conditions: 10 mM PBS, RNase A 0.5 mg/ml, heating rate 60° C./h
Experimental: The thermal unfolding of RNase A was measured by differential scanning calorimetry (DSC) in the range of 10−130° C. The DSC was carried out using a VP DSC microcalorimeter (MicroCal Company, USA) with a heating rate of 60° C./h. In a typical procedure, the RNase A/SV was suspended in 10 mM PBS solution with the RNase A concentration of 0.5 mg/ml. A reference suspension was also prepared using only SV the same concentration. The reference and sample suspension were injected in the corresponding cells for DSC measurements. The DSC curve of free RNase A was also obtained.

B1: free RNase A: ribonuclease A, model therapeutical protein (protein, UniProt P61823 27-150, looked up)
Ribonuclease pancreatic: KETAAAKFERQHMDSSTSAASSSNYCNQMMKSRNLTKDRCKPVNTFVHESLADVQAVCSQKNVACKNGQTNCYQSYSTMSITDCRETGSSKYPNCAYKTTQANKHIIVACEGNPYVPVHFDASV
cellular toxicity / inhibition of SCC25 cells (SCC25 cells; 24 to 72 h, samples acid and heat treated): no inhibition
cytotoxicity to SCC25 cells (SCC25 cells; free protein after denaturation): no cytotoxicity
cytotoxicity to SCC25 cells (SCC25 cells; free protein, not denatured): no cytotoxicity
cellular toxicity / inhibition of HCT116 cells (HCT116 cells): no inhibition
midpoint temperature for the RNase A thermal unfolding (Tm) (RNase A): 63.6 °C
